Biological target: Untagged human mitochondrial ClpP (HsClpP) (UniProt Q16740)
Sequence (Q16740 other isoform, or with tags, fused parts or gaps): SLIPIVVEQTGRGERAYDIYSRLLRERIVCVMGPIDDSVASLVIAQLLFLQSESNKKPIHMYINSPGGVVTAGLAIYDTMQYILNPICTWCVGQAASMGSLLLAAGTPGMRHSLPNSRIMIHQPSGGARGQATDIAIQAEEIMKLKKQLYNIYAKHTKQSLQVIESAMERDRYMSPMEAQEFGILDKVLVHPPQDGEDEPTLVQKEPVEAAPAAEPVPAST

Chain of Untagged human mitochondrial ClpX (HsClpX) (chain, as listed by the source): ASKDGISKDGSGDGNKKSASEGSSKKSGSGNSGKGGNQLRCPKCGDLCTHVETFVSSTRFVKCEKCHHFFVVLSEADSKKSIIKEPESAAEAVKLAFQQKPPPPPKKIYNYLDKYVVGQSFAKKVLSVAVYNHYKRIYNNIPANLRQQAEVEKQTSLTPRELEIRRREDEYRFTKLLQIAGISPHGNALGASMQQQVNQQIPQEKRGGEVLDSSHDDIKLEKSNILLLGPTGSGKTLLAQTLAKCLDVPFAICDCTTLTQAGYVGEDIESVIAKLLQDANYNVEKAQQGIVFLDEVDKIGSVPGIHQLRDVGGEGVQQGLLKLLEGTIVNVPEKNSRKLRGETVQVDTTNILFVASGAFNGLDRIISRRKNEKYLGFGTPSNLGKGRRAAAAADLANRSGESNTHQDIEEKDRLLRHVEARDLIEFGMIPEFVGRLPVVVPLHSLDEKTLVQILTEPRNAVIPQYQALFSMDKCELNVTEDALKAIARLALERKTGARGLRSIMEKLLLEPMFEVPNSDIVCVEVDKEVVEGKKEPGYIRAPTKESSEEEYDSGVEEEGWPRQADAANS

## Untagged human mitochondrial ClpX (HsClpX)
  Hill coefficient (h) of casein-FITC degradation by HsClpP with titrated HsClpX: mild positive cooperativity (h=1.25) in HsCIpP-binding
  K0.5 (microscopic apparent dissociation constant). Hill fit of initial rates of casein-FITC degradation; HsClpX titrated 0-18 µM against 3 µM HsClpP: a K0.5 of 5.7 µM
  Vmax of casein-FITC degradation by HsClpP with titrated HsClpX: a Vmax of 6.88 RFU.s^-1
